One block for each molecule: values may come before it. Positions of bridges follow the written chain, without caps; N, C: chain ends. Residues, ends and D or L forms follow the SMILES beside them. No end group written: not given here. *: point of attachment. Biotin = O=C1N[C@H]2[C@H](CS[C@H]2CCCCC(=O)*)N1; Ahx = NCCCCCC(=O)O
Columns and labels:
human p-selectin = target: T1, human p-selectin (Homo sapiens, UniProt P16109); experiment: Competition ELISA: displacement of TM11-strepPO complex from coated chimeric human P-selectin; type: binding; details: competition with 2.5 nM TM11-strepPO, 1 hour at 4° C.; linear compounds in the presence of DTT; read-out: Affinity (affinity constant)
T1 sequence (P16109 42-830): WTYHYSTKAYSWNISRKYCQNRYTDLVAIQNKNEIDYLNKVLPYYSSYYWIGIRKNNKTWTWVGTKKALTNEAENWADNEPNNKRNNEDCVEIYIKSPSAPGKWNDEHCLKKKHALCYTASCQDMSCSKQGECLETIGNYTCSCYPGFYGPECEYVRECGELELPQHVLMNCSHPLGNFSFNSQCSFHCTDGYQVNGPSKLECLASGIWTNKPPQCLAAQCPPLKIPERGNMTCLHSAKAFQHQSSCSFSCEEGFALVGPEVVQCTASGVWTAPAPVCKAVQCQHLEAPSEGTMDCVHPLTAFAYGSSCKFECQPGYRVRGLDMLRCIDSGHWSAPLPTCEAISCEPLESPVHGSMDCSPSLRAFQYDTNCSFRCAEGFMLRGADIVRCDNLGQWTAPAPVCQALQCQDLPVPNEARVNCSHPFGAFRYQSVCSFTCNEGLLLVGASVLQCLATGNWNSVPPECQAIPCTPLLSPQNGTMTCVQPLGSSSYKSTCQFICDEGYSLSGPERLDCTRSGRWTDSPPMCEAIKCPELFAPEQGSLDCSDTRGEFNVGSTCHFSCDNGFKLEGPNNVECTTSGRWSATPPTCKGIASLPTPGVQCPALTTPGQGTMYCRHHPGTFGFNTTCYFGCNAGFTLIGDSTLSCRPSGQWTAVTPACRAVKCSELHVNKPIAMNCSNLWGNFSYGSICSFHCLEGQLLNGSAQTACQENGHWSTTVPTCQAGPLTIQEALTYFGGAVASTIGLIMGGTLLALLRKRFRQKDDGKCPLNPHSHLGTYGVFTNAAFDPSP
Procedure: The affinity of the compounds to P-selectin was investigated by using an adapted ELISA method. Streptavidin-horseradishperoxidase (strepPO) was incubated with TM11-biotin in a 1 to 4 molar ratio for 2 hours at RT, hereby forming a tetrameric peptide strepPO-complex. For competition studies, microtiter wells were coated with chimeric human p-selectin as described for the isolation of p-selectin binding phage. Wells were then incubated with 2.5 nM TM11-strepPO complex in assay buffer for 1 hour at 4° C., in the presence of titered amounts of peptides to compete for binding to human p-selectin. Linear compounds were tested in the presence of DTT to prevent aggregate formation. After washing 6 times with assay buffer, the wells were incubated with 100 μl TMB/H2O2 for 15 min at RT. The reaction was stopped with 1 M H2SO4 and the absorbance read at 450 nm. From the results, the affinity constants were calculated: […]

human P-selectin-IgG = experiment: Binding of [3H]-cholesterol labeled sulfatide liposomes to human P-selectin-IgG; details: liposomes carrying 22% of sulfatides, 2 hours at 4° C.
Procedure: Liposomes were prepared by sonication from egg yolk phosphatidylcholine, cholesterol, and sulfatides, all dissolved in chloroform/methanol (1:1, v/v), at weight ratios of 4:0.8:1.33. A tracer amount of [^3H]-cholesterol (1.3×10^8 dpm) was added, and the mixture was dried under a stream of nitrogen. The resulting lipid layer was vortexed in PBS and subsequently sonicated, resulting in liposomes with mean particle diameters of 59-62 nm.
Fc-specific goat anti-human IgG in coating buffer (50 mM NaHCO3, pH 9.6) was incubated in a high binding 96 well plate. The next day, wells were washed with assay buffer (20 mM HEPES, 150 mM NaCl, 1 mM CaCl2, pH 7.4) and incubated with blocking buffer (3% BSA in assay buffer). After washing, wells were incubated with human P-selectin-IgG, washed, and subsequently incubated with the [^3H]-cholesterol labeled liposomes in the presence or absence of the compounds below and antibodies for 2 hours at 4° C. After removal of unbound liposomes, bound liposomes were collected and counted using a scintillation counter.

Human platelets = experiment: Inhibition of platelet aggregation; type: cell-based; details: human platelets activated by ADV
Procedure: Human platelets were activated by ADV, and the extent of platelet aggregation was measured in the presence or absence of EWVDV (SEQ ID No: 19)-containing peptides.

[1] = target: T2, chimeric human p-selectin (human, UniProt P16109 42-321); experiment: affinity to human P-selectin, prepared and tested as in example 1 (competition ELISA against TM11-strepPO complex); column head 'Affinity [µM]'
T2 construct: also called human P-selectin-IgG
T2 sequence (looked up): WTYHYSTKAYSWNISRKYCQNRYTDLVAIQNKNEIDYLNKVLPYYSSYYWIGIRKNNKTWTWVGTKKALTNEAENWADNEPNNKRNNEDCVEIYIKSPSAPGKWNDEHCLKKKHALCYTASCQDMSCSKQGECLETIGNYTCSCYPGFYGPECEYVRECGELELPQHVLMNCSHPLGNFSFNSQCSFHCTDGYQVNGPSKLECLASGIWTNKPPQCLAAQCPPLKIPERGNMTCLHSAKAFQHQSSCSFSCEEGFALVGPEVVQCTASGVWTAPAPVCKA
Procedure: (§1) Linear compounds were tested in the presence of DTT to prevent aggregate formation. After washing 6 times with assay buffer, the wells were incubated with 100 μl TMB/H_2O_2 for 15 min at RT. The reaction was stopped with 1 M H_2SO_4 and the absorbance read at 450 nm. From the results, the affinity constants were calculated: […]

[2] = target: T2, chimeric human p-selectin; experiment: competition ELISA; coated chimeric human P-selectin, competitor 2.5 nM TM11-strepPO complex; column head 'Affinity'
Procedure: as §1

Molecule: CC(C)[C@H](NC(=O)[C@H](CC(=O)O)NC(=O)[C@@H](NC(=O)[C@H](Cc1c[nH]c2ccccc12)NC(=O)[C@H](CCC(=O)O)NC(=O)[C@@H](NC(=O)[C@H](CC(=O)O)NC(=O)CCCCCNC(=O)CCCC[C@@H]1SC[C@@H]2NC(=O)N[C@@H]21)C(C)C)C(C)C)C(=O)N[C@@H](CO)C(=O)O [Biotin-A19] ({Biotin-Ahx}-DVEWVDVS-OH)
- IC50 (human p-selectin): 12 µM

Molecule: CC(C)C[C@H](NC(=O)[C@H](CO)NC(=O)[C@H](CO)NC(=O)[C@@H](NC(=O)[C@H](CC(=O)O)NC(=O)[C@@H](NC(=O)[C@H](Cc1c[nH]c2ccccc12)NC(=O)[C@H](CCC(=O)O)NC(=O)[C@@H](NC(=O)[C@H](CC(=O)O)NC(=O)[C@H](CS)NC(=O)CCCCCNC(=O)CCCC[C@@H]1SC[C@@H]2NC(=O)N[C@@H]21)C(C)C)C(C)C)C(C)C)C(=O)N[C@@H](CCC(=O)O)C(=O)N[C@@H](Cc1c[nH]c2ccccc12)C(=O)N[C@@H](CC(=O)O)C(=O)N[C@@H](CC(C)C)C(=O)N1CCC[C@H]1C(=O)N[C@@H](CS)C(=O)O [Biotin-TM11] ({Biotin-Ahx}-CDVEWVDVSSLEWDLPC-OH)
- IC50 (human p-selectin): 2 µM

Molecule: C D V E W V D V S C (CDVEWVDVSC) [A17]
- inhibition of the binding of sulfatides to P-selectin (human P-selectin-IgG): significantly inhibited
- aggregation reduced (second phase of platelet aggregation) (Human platelets): ~25%

Molecule: D V E W V D V A (DVEWVDVA) [A27]
- inhibition of the binding of sulfatides to P-selectin (human P-selectin-IgG): significantly inhibited

Molecule: D V E W V D V S (DVEWVDVS) [A19]
- inhibition of the binding of sulfatides to P-selectin (human P-selectin-IgG): significantly inhibited
- aggregation reduced (second phase of platelet aggregation) (Human platelets): about 45%

Molecule: DVEAVDVS [D V E A V D V S, reference compound]
- inhibition of the binding of sulfatides to P-selectin (human P-selectin-IgG): did not

B2: DVEWADVS (peptide)
peptide: {Biotin-Ahx}-DVEWADVS
notes: Comparative compound
- IC50 [1]: 1400 µM

B3: DVEWVDAS (peptide)
peptide: {Biotin-Ahx}-DVEWVDAS
notes: Comparative compound
- IC50 [1]: 13000 µM

B7: Biotin-TM1 (peptide)
peptide: {Biotin-Ahx}-CPEFVDVEGDPGALLAC
modifications: cysteine pairing not given here
notes: Linear compounds were tested in the presence of DTT
- IC50 [2]: 82 µM

B8: Biotin-TM11(cyclic) (peptide)
peptide: {Biotin-Ahx}-CDVEWVDVSSLEWDLPC
modifications: disulfide 1-17
- IC50 [2]: 2 µM

B9: Biotin-TM2 (peptide)
peptide: {Biotin-Ahx}-CGWVDVIASGDTATLAC
modifications: cysteine pairing not given here
notes: as for B7
- IC50 [2]: 49 µM

B11: Biotin-TM16 (peptide)
peptide: {Biotin-Ahx}-CPDWVDVFKLVEGVMLC
modifications: cysteine pairing not given here
notes: as for B7
- IC50 [2]: 12 µM

Next, values leading:

- IC50 (human p-selectin): 2 µM
Molecule: CC(C)C[C@@H]1NC(=O)[C@H](CO)NC(=O)[C@H](CO)NC(=O)[C@H](C(C)C)NC(=O)[C@H](CC(=O)O)NC(=O)[C@H](C(C)C)NC(=O)[C@H](Cc2c[nH]c3ccccc23)NC(=O)[C@H](CCC(=O)O)NC(=O)[C@H](C(C)C)NC(=O)[C@H](CC(=O)O)NC(=O)[C@@H](NC(=O)CCCCCNC(=O)CCCC[C@@H]2SC[C@@H]3NC(=O)N[C@@H]32)CSSC[C@@H](C(=O)O)NC(=O)[C@@H]2CCCN2C(=O)[C@H](CC(C)C)NC(=O)[C@H](CC(=O)O)NC(=O)[C@H](Cc2c[nH]c3ccccc23)NC(=O)[C@H](CCC(=O)O)NC1=O [Biotin-TM11(cyclic)] ({Biotin-Ahx}-CDVEWVDVSSLEWDLPC-OH; disulfide 1-17)

- inhibition of the binding of sulfatides to P-selectin (human P-selectin-IgG): did not
Molecule: EWVDV [core motif peptide]

- IC50 [1]: 400000 µM
B1: DVEAVDVS (peptide)
peptide: {Biotin-Ahx}-DVEAVDVS
notes: Comparative compound

- IC50 [1]: 21000 µM
B4: DVEWVAVS (peptide)
peptide: {Biotin-Ahx}-DVEWVAVS
notes: Comparative compound

- IC50 [2]: 19 µM
B5: Biotin-SH31 (peptide)
peptide: {Biotin-Ahx}-VGLDPRDWVDVSDYA

- IC50 [2]: 0.1 µM
B6: Biotin-A17 (peptide)
peptide: {Biotin-Ahx}-CDVEWVDVSC
modifications: cysteine pairing not given here
notes: Only TM11 is said to have been prepared in a cyclized form as well

- IC50 [1]: 13000 µM
B10: EWVKVA (peptide)
peptide: {Biotin-Ahx}-EWVKVA
notes: Comparative compound

From patent US7531516B2, “Peptidic compounds selectively binding to P-selectin” (Astellas Pharma Europe B.V., priority 2001, dated 2009)
